Results as given in paper PMC4755760, “The acidic domain of the endothelial membrane protein GPIHBP1 stabilizes lipoprotein lipase activity by preventing unfolding of its catalytic domain” (eLife, 2016).

How the values were obtained:
[1] = molecular target: bovine LPL homodimer (LPL2) (bovine) (UniProt P11151)
[2] = molecular target: Alexa-647–labeled GPIHBP1^34–131/R38G (human) (UniProt Q8IV16); assay: MST; Monolith NT.115; 5 nM Alexa-647-labeled GPIHBP1, LPL2 titrated 10 pM to 350 nM; 10 mM HEPES (pH 7.4), 150 mM NaCl, 4 mM CaCl2, 0.05% P20, 1.0 mg/ml BSA; 22°C; 1:1 model
[3] = molecular target: bovine LPL homodimer (LPL2) (bovine) (UniProt P11151); assay: SPR; Biacore T200, CM4 chip; bovine LPL2 captured on immobilised mAb 5D2, GPIHBP1 as analyte (12.5-200 nM), single-cycle kinetic titration; 20°C; 10 mM HEPES (pH 7.4), 150 mM NaCl, 4 mM CaCl2, 0.05% P20, 0.2 mg/ml BSA; 1:1 model
[4] = molecular target: T1, CTD^313–448 of human LPL (human, UniProt P06858 340-475); assay: SPR; Biacore T200, CM4 chip; LPL CTD captured on immobilised mAb 5D2 (~100–200 RU), GPIHBP1 as analyte 8 nM to 4 µM; 20°C; 10 mM HEPES, 150 mM NaCl, 3 mM EDTA (pH 7.4), 0.05% P20; single- and multi-cycle kinetics, global fit to a 1:1 model; conditions: both partners purified
T1 construct: lipoprotein lipase (LPL), human, C-terminal domain, residues 313-448; numbers count on: the mature protein; the printed surface densities (85 RU ~ 5 fmols/mm^2) fit about 17 kDa, that is a CTD without the tag (surmise); also called LPL CTD; C-terminal domain of LPL; source: Drosophila S2 cells, secreted as RS-DIII-ent-CTD, purified (anti-uPAR mAb R24 column)
T1 sequence (looked up): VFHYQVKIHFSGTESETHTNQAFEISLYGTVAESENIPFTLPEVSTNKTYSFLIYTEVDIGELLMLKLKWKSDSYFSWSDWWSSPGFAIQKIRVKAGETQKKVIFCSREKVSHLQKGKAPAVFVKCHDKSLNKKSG

[5] = molecular target: T2, bovine LPL homodimer (LPL2) (bovine, UniProt P11151 29-478); assay: cell-based or functional assay
T2 sequence (looked up): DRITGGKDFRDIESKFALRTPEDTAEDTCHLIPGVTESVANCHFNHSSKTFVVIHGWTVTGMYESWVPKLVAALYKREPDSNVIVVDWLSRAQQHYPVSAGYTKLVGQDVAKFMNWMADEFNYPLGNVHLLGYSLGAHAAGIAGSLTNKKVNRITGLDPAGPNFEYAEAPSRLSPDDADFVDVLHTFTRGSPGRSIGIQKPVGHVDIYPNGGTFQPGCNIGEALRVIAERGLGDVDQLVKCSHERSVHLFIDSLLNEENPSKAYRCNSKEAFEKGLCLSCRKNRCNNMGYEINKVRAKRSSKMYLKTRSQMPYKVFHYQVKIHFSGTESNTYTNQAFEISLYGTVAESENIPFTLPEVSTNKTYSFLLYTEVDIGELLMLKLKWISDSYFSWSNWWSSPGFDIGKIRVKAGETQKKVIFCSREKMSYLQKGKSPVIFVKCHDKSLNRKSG

[6] = molecular target: T2, bovine LPL homodimer (LPL2); assay: SPR; Biacore T200, CM4 chip; bovine LPL2 captured on immobilised mAb 5D2, GPIHBP1 as analyte (12.5-200 nM), single-cycle kinetic titration; 20°C; 10 mM HEPES (pH 7.4), 150 mM NaCl, 4 mM CaCl2, 0.05% P20, 0.2 mg/ml BSA; 1:1 model; conditions: both partners purified
[7] = molecular target: T2, bovine LPL homodimer (LPL2); assay: MST; Monolith NT.115; 5 nM Alexa-647-labeled GPIHBP1, LPL2 titrated 10 pM to 350 nM; 10 mM HEPES (pH 7.4), 150 mM NaCl, 4 mM CaCl2, 0.05% P20, 1.0 mg/ml BSA; 22°C; 1:1 model; conditions: both partners purified

GPIHBP1^1–33 (peptide)
Loss of esterase activity (%) of LPL after 45 min at 25°C, peptide in 5-fold molar excess; relative to LPL without ligand (100%) [1]: 9.8% | Loss of triolein hydrolase activity (%) of LPL after 45 min at 25°C, peptide in 5-fold molar excess; relative to LPL without ligand (100%) [1]: 4.2% | Unfolding of NTD in LPL (%) after 45 min at 25°C, by pulse-labeling HDX-MS, equimolar ligand; relative to LPL without ligand (100%) [1]: 43%

bovine LPL homodimer (LPL2) (from UniProt P11151 29-478) (enzyme)
Kd [2]: 147 nM

GPIHBP1^34–131/R38G (from UniProt Q8IV16 54-151) (domain or fragment)
Loss of esterase activity (%) of LPL after 45 min at 25°C; relative to LPL without ligand (100%) [1]: 34.7% | Loss of triolein hydrolase activity (%) of LPL after 45 min at 25°C; relative to LPL without ligand (100%) [1]: 51.5% | Unfolding of NTD in LPL (%) after 45 min at 25°C, by pulse-labeling HDX-MS, equimolar ligand; relative to LPL without ligand (100%) [1]: 79.2% | Kd [3]: 91 nM | koff [3]: 0.019 s⁻¹ | kon [3]: 190000 M⁻¹ s⁻¹

B1: GPIHBP1^34–131/R38G (domain or fragment, human, UniProt Q8IV16 54-151, looked up)
chain: LPGGGSRVLLRCYTCKSLPRDERCNLTQNCSHGQTCTTLIAHGNTESGLLTTHSTWCTDSCQPITKTVEGTQVTMTCCQSSLCNVPPWQSSRVQDPTG
notes: numbers count on: the mature protein; Monomeric by SEC; also called truncated GPIHBP1 lacking the acidic domain; isolated LU domain; source: Drosophila S2 cells; not shown: uPAR domain III (DIII), N-terminal, cleaved
Kd [4]: 1410 ± 760 nM | koff [4]: 0.1 ± 0.01 s⁻¹ | kon [4]: 100000 M⁻¹ s⁻¹

B2: GPIHBP1^1–131/R38G (domain or fragment, human, UniProt Q8IV16 21-151, looked up)
chain: QTQQEEEEEDEDHGPDDYDEEDEDEVEEEETNRLPGGGSRVLLRCYTCKSLPRDERCNLTQNCSHGQTCTTLIAHGNTESGLLTTHSTWCTDSCQPITKTVEGTQVTMTCCQSSLCNVPPWQSSRVQDPTG
notes: numbers count on: the mature protein; Monomeric by SEC; Carries a single N-linked glycan; also called soluble human GPIHBP1; not shown: uPAR domain III (DIII), N-terminal, cleaved
Loss of esterase activity (%) of LPL after 45 min at 25°C; relative to LPL without ligand (100%) [5]: 11.4% | Loss of triolein hydrolase activity (%) of LPL after 45 min at 25°C; relative to LPL without ligand (100%) [5]: 28.7% | Unfolding of NTD in LPL (%) after 45 min at 25°C, by pulse-labeling HDX-MS, equimolar ligand; relative to LPL without ligand (100%) [5]: 32.6% | Kd [6]: 25 ± 7 nM | koff [6]: 0.023 ± 0.006 s⁻¹ | kon [6]: 990000 M⁻¹ s⁻¹ | Kd [4]: 120 ± 40 nM | koff [4]: 0.12 ± 0.04 s⁻¹ | kon [4]: 1.04e+06 M⁻¹ s⁻¹

B3: Alexa-647–labeled GPIHBP1^1–131/R38G (domain or fragment, human, UniProt Q8IV16 21-151, looked up)
chain: QTQQEEEEEDEDHGPDDYDEEDEDEVEEEETNRLPGGGSRVLLRCYTCKSLPRDERCNLTQNCSHGQTCTTLIAHGNTESGLLTTHSTWCTDSCQPITKTVEGTQVTMTCCQSSLCNVPPWQSSRVQDPTG
modifications: Alexa Flour-647 (NHS ester), average 1.3 flurophore/protein; conditions favor modification of the N-terminal α-amino group
notes: numbers count on: the mature protein; m1 with a fluorophore; source: Drosophila S2 cells, purified, labeled with Alexa Flour-647 NHS ester, desalted (PD-10); not shown: uPAR domain III (DIII), N-terminal, cleaved
Kd [7]: 5.7 nM

B4: GPIHBP1^1–131/R38G N-gly (domain or fragment, human, UniProt Q8IV16 21-151, looked up)
chain: QTQQEEEEEDEDHGPDDYDEEDEDEVEEEETNRLPGGGSRVLLRCYTCKSLPRDERCNLTQNCSHGQTCTTLIAHGNTESGLLTTHSTWCTDSCQPITKTVEGTQVTMTCCQSSLCNVPPWQSSRVQDPTG
modifications: the single N-linked glycan removed with N-glycanase
notes: numbers count on: the mature protein; As m1 after removal of the N-glycan; source: Drosophila S2 cells, purified, then incubated overnight at 37°C with N-glycanase under native conditions; not shown: uPAR domain III (DIII), N-terminal, cleaved
Kd [4]: 150 nM | koff [4]: 0.16 s⁻¹ | kon [4]: 1.06e+06 M⁻¹ s⁻¹

B5: GPIHBP1^1–131 (domain or fragment, human, UniProt Q8IV16 21-151, looked up)
chain: QTQQEEEEEDEDHGPDDYDEEDEDEVEEEETNRLPGGRSRVLLRCYTCKSLPRDERCNLTQNCSHGQTCTTLIAHGNTESGLLTTHSTWCTDSCQPITKTVEGTQVTMTCCQSSLCNVPPWQSSRVQDPTG
notes: numbers count on: the mature protein; not shown: uPAR domain III (DIII), N-terminal, cleaved
Kd [6]: 38 ± 29 nM | koff [6]: 0.02 ± 0.007 s⁻¹ | kon [6]: 650000 M⁻¹ s⁻¹ | Kd [4]: 290 ± 130 nM | koff [4]: 0.22 ± 0.07 s⁻¹ | kon [4]: 1.12e+06 M⁻¹ s⁻¹
